{"source": "patent US20220073643A1", "about": "(NANJING GENSCRIPT BIOTECH, published 2022)", "binders": {"B1": {"name": "humanized 207F8G5-VH1.1 + VL1.1 (antibody, human IgG1, kappa, V domains shown)", "VH": "QVQLVQSGAEVKKPGASVKVSCKASGFTFTSYNIHWVKQAPGQGLEWMGYISPGNGGSNYNLKFKDRVTMTSDTSISTAYMELSRLRSDDTAVYFCATGRGFAYWGQGTLVTVSS", "VL": "DIVMTQSPDSLAVSPGERATMSCKSSQSLFNSGNQKNYLIWYQQKPGQPPKLLIYRASTRDSGVPDRFSGSGSGTDFTLTISSLQAEDVAVYYCQNDYSYPLTFGGGTKLEIKR", "notes": "humanized, human IgG1/kappa constant regions"}, "B2": {"name": "humanized 207F8G5-VH1.3 + VL1.1 (antibody, human IgG1, kappa, V domains shown)", "VH": "B1 VH with K38R, M48I, V68A", "VL": "B1 VL", "notes": "as for B1"}, "B3": {"name": "humanized 207F8G5-VH1.7 + VL1 (antibody, human IgG1, kappa, V domains shown)", "VH": "B1 VH with M70L, F95Y", "VL": "B1 VL with P15L, M21I, S22N", "notes": "as for B1"}, "B4": {"name": "humanized 232C5E3-VL1.1 + VH1 (antibody, human IgG1, kappa, V domains shown)", "VH": "QVQLVQSGAEVKKPGASVKVSCKASGYTFTSHNIHWVRQAPGQRLEWMGYIYPGNGGTNYNQKFKARVTITRDTSASTAYMELSSLRSEDTAVYYCARDYYGNSFAYWGQGTLVTVSS", "VL": "B1 VL with P15L, F30L, I40T, R56W, D61E, D97G, S99R, Y100F, L102F, G106Q", "notes": "as for B1"}, "B5": {"name": "humanized 232C5E3-VL1.1 + VH1.1 (antibody, human IgG1, kappa, V domains shown)", "VH": "B4 VH with M48I, V68A, R72A, Y95F", "VL": "B1 VL with P15L, F30L, I40T, R56W, D61E, D97G, S99R, Y100F, L102F, G106Q", "notes": "as for B1"}, "B6": {"name": "humanized 232C5E3-VL1.1 + VH1.2 (antibody, human IgG1, kappa, V domains shown)", "VH": "B4 VH with V37I, R38K, R72A, Y95F", "VL": "B1 VL with P15L, F30L, I40T, R56W, D61E, D97G, S99R, Y100F, L102F, G106Q", "notes": "as for B1"}, "B7": {"name": "humanized 237D2A4-VH1.2 + VL1 (antibody, human IgG1, kappa, V domains shown)", "VH": "QVQLQESGPGLVKPSETLSLTCTVSGFSLTSYGVSWIRQPPGKGLEWIGVIWGDGSTNYHSTLISRVTISKDTSKNQVFLKLSSVTAADTAVYYCAKAGRGNALDYWGQGTLVTVSS", "VL": "B1 VL with P15L, M21I, S22N, F30L, I40T, R56W, D61E, Y100F", "notes": "as for B1"}, "B8": {"name": "humanized 246B5F2-VH1.1 + VL1 (antibody, human IgG1, kappa, V domains shown)", "VH": "EVQLLESGGGLVQPGGSLRLSCAASEFTFSNYAMSWVRQAPGKRLEWVATISSGRSSTYYPDSVKGRFTISRDNSKNTLYLQMNSLRAEDTAVYYCAGLGRGNAMEYWGQGTLVTVSS", "VL": "B1 VL with P15L, M21I, S22N, F30L, I40T, R56W, D61E, D97A, L102F", "notes": "as for B1"}, "B9": {"name": "humanized 246B5F2-VH1 + VL1 (antibody, human IgG1, kappa, V domains shown)", "VH": "B8 VH with R44G, A49S, G98K", "VL": "B1 VL with P15L, M21I, S22N, F30L, I40T, R56W, D61E, D97A, L102F", "notes": "as for B1"}, "B10": {"name": "humanized 246B5F2-VH1.1 + VL1.1 (antibody, human IgG1, kappa, V domains shown)", "VH": "B8 VH", "VL": "B1 VL with P15L, M21I, F30L, I40T, R56W, D61E, S69T, D97A, L102F", "notes": "as for B1"}, "B11": {"name": "429H6C5 (antibody, V domains shown)", "VH": "DVQLVESGGGLVQPGGSRKLSCAASGFTFSSFGMHWVRQAPEKELEWVAYISSGSSTIYYAHTVKGRFTISRDNPKNTLFLRMTSLGSEDTAMYYCVRFYYGNSFVNWGQGTLVTVSA", "VL": "DIVMTQSPSSLTATAGEKVTMSCKSSQSLLNSGNQKNYLTWYQQKPGQPPKMLIYWASTRESGVPDRFAGSGSGTDFTLTISSVQAEDLAVYYCQNAYIYPLTFGAGTRLELK", "notes": "mouse hybridoma mAb"}, "B12": {"name": "430A11H9 (antibody, V domains shown)", "VH": "DVKLVESGGGLVKPGGSLKLSCAASGFTFSSYTMSWVRQTPEKRLEWVATISSGGSYTYYPDSVKGRFTISRDNAKNTLYLQMSSLKSEDTAMYYCTRDPGYFAYWGQGTLVTVSA", "VL": "DIQMTQSPASLSASVGETVTITCRASENIYSYLAWYQQKQGKSPQLLVYNAKTLAEGVPSRFSGSGSGTQFSLKINSLQPEDFGSYYCQHHYGTPYTFGGGTKLEIK", "notes": "mouse hybridoma mAb"}}, "note": "Numbering of substitutions follows the chain as printed.", "data": [{"target": "T1, human Claudin18.2 (human)", "T1 construct": "also called CLDN18.2", "assay": "FACS, Claudin18.2-HEK293 cells", "experimental": "The binding of chimeric antibodies to Claudin18.2 expressed on HEK293 cells was determine by FACS analysis. Briefly, HEK293 cells expressing human Claudin18.2 as prepared in the foregoing Example were harvested and incubated with anti-Claudin18.2 mAbs at 4° C. for 40 min, followed by fluorophore (iFluor 647)-labeled goat […] IgG (H+L) secondary antibodies at 4° C. for 0.5 hour. The samples were then analyzed by flow cytometry.\nAfter initial screening of cell binding with transfected supernatants, the binding pattern of chimeric and up to 3 humanized antibodies on Claudin18.2 expressed on HEK293 cells were plotted with antibody in 3× serial dilutions, starting concentration of 45 μg/ml, following the protocol described in Example 3.", "units": {"EC50": "µg/mL"}, "values": [{"binder": "B1", "EC50": 0.168, "Span": 14000}, {"binder": "B2", "EC50": 0.143, "Span": 13800}, {"binder": "B3", "EC50": 0.145, "Span": 13800}, {"binder": "B4", "EC50": 0.304, "Span": 58000}, {"binder": "B5", "EC50": 0.224, "Span": 54900}, {"binder": "B6", "EC50": 0.212, "Span": 57900}, {"binder": "B7", "EC50": 0.261, "Span": 15700}, {"binder": "B8", "EC50": 0.104, "Span": 10900}, {"binder": "B9", "EC50": 0.16, "Span": 14200}, {"binder": "B10", "EC50": 0.283, "Span": 14700}]}, {"target": "T1, human Claudin18.2", "assay": "cell ELISA, Claudin18.2-expressing HEK293T cells", "procedure,_shortened": "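Claudin18.2-expressing HEK293T stable cells (1.5×10⁶ cells/ml in 5% skim milk/PBS blocking buffer) were incubated 1 h at room temperature in plates pre-blocked overnight at 4° C. EC₅₀ was derived by four-parameter curve fit.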", "units": {"EC50": "nM"}, "values": [{"binder": "B11", "EC50": 13.2}, {"binder": "B12", "EC50": "~1.7"}]}]}
